Results as given in US20180230236A1.

Tests used:
[1] = biological target: canine IgE (canine monoclonal IgE from mouse x dog heterohybridoma cell line 2.39) (canine); test: affinity estimated from titration to end signal on IgE coated ELISA microtiter plates
[2] = biological target: canine IgE (canine monoclonal IgE from mouse x dog heterohybridoma cell line 2.39) (canine); test: flow cytometry; displacement of APC-canine IgE from FcεRI on C2 cells by chimera supernatant
[3] = biological target: canine IgE (canine monoclonal IgE from mouse x dog heterohybridoma cell line 2.39) (canine); test: flow cytometry; C2 cells loaded with APC-canine IgE, then supernatant of chimera-transfected HEK 293 for 60 min at room temperature; displacement of IgE from FcεRI

Sequence of canine IgE (canine monoclonal IgE from mouse x dog heterohybridoma cell line 2.39) (canine) (P25054 whole entry): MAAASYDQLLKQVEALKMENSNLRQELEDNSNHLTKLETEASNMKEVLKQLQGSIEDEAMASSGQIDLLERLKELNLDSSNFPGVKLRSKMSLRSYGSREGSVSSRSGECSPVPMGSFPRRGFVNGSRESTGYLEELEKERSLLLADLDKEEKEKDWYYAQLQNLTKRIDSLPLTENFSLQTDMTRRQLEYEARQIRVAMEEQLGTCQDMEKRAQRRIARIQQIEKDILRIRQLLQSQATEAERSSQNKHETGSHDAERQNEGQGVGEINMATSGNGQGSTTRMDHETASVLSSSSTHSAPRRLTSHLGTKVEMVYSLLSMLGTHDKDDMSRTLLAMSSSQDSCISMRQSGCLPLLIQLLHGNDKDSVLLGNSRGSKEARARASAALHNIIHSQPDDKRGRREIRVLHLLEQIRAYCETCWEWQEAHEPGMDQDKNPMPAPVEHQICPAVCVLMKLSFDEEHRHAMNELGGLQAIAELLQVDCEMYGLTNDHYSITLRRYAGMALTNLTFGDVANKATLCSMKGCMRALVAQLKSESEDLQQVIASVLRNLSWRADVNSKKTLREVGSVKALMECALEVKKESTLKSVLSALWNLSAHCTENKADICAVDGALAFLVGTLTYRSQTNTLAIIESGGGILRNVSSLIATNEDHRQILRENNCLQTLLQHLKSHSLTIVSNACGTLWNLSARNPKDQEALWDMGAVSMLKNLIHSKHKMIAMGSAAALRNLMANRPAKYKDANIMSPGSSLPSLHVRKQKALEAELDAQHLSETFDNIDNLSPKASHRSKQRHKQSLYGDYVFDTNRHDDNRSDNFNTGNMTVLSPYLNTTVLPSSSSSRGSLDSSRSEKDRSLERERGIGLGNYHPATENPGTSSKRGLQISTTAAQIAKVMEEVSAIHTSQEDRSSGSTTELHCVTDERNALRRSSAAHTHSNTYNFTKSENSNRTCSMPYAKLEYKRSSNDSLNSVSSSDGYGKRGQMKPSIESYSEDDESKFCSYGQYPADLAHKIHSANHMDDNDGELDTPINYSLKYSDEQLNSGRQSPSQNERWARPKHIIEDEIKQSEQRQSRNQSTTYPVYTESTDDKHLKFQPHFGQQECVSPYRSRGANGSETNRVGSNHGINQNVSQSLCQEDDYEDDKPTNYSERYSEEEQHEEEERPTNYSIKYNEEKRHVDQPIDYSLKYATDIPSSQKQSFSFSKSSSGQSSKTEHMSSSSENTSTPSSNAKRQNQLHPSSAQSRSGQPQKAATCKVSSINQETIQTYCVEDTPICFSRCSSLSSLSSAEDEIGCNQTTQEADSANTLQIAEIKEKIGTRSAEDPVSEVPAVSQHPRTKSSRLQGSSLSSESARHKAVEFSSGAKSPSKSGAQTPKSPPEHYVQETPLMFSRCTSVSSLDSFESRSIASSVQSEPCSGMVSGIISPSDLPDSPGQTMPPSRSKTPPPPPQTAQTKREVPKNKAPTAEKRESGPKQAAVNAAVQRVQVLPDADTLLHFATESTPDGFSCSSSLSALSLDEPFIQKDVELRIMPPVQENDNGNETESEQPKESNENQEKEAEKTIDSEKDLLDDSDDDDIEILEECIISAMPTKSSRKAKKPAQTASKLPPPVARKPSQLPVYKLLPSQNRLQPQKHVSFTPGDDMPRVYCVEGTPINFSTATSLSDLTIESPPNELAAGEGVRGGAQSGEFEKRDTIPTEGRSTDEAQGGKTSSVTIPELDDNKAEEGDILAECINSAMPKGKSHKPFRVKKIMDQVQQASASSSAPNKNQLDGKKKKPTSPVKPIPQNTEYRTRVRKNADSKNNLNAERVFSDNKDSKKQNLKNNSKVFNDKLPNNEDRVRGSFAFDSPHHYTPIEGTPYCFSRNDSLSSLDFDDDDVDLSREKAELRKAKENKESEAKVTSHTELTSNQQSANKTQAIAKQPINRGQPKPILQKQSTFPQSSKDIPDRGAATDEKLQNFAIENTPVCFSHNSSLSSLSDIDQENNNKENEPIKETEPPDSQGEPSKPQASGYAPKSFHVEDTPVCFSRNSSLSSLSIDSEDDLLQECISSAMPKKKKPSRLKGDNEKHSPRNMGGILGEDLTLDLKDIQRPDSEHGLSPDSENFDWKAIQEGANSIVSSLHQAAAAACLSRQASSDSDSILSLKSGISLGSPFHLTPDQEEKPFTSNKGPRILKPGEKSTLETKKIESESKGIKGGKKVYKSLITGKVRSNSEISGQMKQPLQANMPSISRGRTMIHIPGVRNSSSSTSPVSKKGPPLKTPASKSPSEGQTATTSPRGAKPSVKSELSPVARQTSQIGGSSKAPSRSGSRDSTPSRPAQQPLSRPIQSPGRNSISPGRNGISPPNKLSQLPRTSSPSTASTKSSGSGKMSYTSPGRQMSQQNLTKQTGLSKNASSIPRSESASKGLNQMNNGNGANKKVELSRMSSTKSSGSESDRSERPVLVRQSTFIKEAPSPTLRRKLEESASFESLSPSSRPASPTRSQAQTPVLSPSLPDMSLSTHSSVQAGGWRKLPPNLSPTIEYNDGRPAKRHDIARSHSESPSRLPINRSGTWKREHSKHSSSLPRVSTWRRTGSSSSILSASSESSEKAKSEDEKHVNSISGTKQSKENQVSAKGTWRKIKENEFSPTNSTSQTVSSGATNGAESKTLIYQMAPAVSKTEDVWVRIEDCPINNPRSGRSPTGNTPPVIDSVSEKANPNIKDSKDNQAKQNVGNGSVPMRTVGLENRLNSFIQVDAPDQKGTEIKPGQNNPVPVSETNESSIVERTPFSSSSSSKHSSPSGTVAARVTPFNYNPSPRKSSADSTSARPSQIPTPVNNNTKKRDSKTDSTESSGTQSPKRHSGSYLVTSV

affinity [1]: 100 pM
loss of mast cells carrying IgE [2]: > 50%
% cells with label (after chimera supernatant) [3]: 4.11%
B1: chimera of canine FcεRI alpha chain x scFv-5.91 (protein)
chain: DTLKPTVSMNPPWNTILKDDSVTLTCTGNNSLEVDSAVWLHNNTTLQETTSRLDINKAQIQDSGEYRCRENRSILSDPVYLTVFTEWLILQASANVVMEGESFLIRCHSWKNLRLTKVTYYKDGIPIRYWYENFNISISNVTTKNSGNYSCSGQIQQKGYTSKVLNIIVKKEPTKQNKYSGLQGGGGSGGGGSGGGGSEVQLQQSGPELVKPGASMKISCKASGYSITGYTIHWVKQSHGKNLEWIGLINPYTGGITYNQNFKGKATLTVDKSSSTAYMELLSLTSEDSAVYYCSRGPYGNFYAMDYWGQGTSVTVSSGGGGSGGGGSGGGGSDIQMTQSPASLSASVGETVTITCRASGNIHNYLAWYQQKQGKSPQLLVYNAKTLADSVPSRFSGSGSGTQFSLKINSLQPEDFGSYYCQHFWSTPYTFGGGTKLEIKRA
